In patent US20250361322A1 (ICONIC THERAPEUTICS, published 2025):
Substitutions are numbered along the chain they refer to. Like-named read-outs stand apart in the source and are kept apart here.

How the values were obtained:
[1] = molecular target: T1, Relipidated TF (UniProt P13726 33-295, limits assumed); test: cell-based or functional assay
[2] = molecular target: T2, Expi293-derived TF-His (human (Example 17 does not restate the …, UniProt P13726 33-251)); test: protein ELISA, plate coated with Expi293-derived TF-His, antibody titrated, HRP secondary, luminescence
T2 construct: Glycosylated TF ECD-His6 from Expi293 cells; also called Expi293-derived TF protein; TF ECD-His6
Method: (§1) Plates coated with Expi293- or E. coli-derived TF-His were incubated with increasing concentrations of antibodies.

[3] = molecular target: T1, Relipidated TF; test: cell-based or functional assay; remark: listed apart in the source
[4] = molecular target: T3, E. coli-derived TF (human (Example 17 does not restate the …, UniProt P13726 33-251)); test: protein ELISA, plate coated with E. coli-derived TF-His, antibody titrated, HRP secondary, luminescence
T3 construct: also called E. coli-derived TF-His; E. coli-derived TF protein
Method: as §1

[5] = molecular target: T4, Macaca mulatta TF on RF/6A cells (Macaca mulatta (protein sequence stated …, UniProt P13726 33-294 (human entry))); test: flow cytometry, IgG1 titrated on TF-positive Macaca mulatta RF/6A cells, 4-parameter fit
T4 construct: Endogenous TF of the RF/6A cell line; also called TF-positive Macaca mulatta RF/6A cells; cynomolgus TF
T4 chain: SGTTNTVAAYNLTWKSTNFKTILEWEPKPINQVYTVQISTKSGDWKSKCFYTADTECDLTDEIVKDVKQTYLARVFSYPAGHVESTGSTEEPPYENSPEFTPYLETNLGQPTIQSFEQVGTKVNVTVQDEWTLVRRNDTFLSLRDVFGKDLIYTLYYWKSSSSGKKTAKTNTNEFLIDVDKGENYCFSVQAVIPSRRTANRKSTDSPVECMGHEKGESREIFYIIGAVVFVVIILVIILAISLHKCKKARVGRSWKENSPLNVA
Method: (§2) After 2 washes, dead cells were labeled with TO-PRO-3 Iodide (ThermoFisher Scientific) and samples were analyzed on a CytoFLEX flow cytometer (Beckman Coulter, Brea, CA, USA) or Novocyte flow cytometer (ACEA Biosciences, San Diego, CA, USA). The median fluorescence intensities (MFIs) at each dilution were plotted and cell EC₅₀'s were derived using a 4-parameter binding model in Prism (GraphPad, La Jolla, CA, USA).

[6] = molecular target: T5, human Tissue Factor on human TF-positive cells (human, UniProt P13726 33-295); test: flow cytometry, antibody titration on HCT-116 cells (endogenous human TF), 4-parameter fit of MFI
T5 construct: also called hTF; CD142
Method: as §2

[7] = molecular target: T6, full-length mouse TF with a C-terminal FLAG tag on Flp-In-CHO cells (mouse, UniProt P20352 29-294); test: flow cytometry on CHO cells expressing mouse TF, MFI at 250 nM antibody
T6 construct: also called CHO-mTF; mouse TF-positive CHO cells
Method: as §2

[8] = molecular target: T6, full-length mouse TF with a C-terminal …; test: flow cytometry, antibody titration on CHO cells expressing mouse TF, 4-parameter fit of MFI
Method: as §2

[9] = molecular target: T7, cynomolgus monkey TF ECD-His6 (cynomolgus monkey (Macaca fascicularis)); test: SPR (Biacore), TF-His over coupled antibody
T7 construct: Expi293-derived; also called TF-His; cTF
T7 chain: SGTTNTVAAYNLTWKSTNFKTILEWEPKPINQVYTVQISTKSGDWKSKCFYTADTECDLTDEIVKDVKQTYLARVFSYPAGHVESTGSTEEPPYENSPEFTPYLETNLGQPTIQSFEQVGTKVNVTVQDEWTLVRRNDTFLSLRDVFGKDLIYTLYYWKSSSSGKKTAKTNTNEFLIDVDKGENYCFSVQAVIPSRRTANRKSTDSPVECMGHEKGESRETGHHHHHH
Method: (§3) Kinetic measurements for the anti-TF antibodies were conducted on an Octet QK384 (Pall ForteBio, Fremont, CA, USA) or a Biacore (GE Healthcare Bio-Sciences).
(§4) For the Biacore-based measurements, the antibody was covalently coupled to a CM5 or C1 chip using an amine-coupling kit (GE Healthcare Bio-Sciences). Association between the anti-TF antibodies and a five-point three-fold titration of TF-His starting at 25 to 500 nM was measured for 300 sec. Subsequently, dissociation between the anti-TF antibody and TF-His was measured for up to 1800 sec. Kinetic data was analyzed and fitted globally using a 1:1 binding model.

[10] = molecular target: T8, human TF ECD-His6 (human, UniProt P13726 33-251); test: SPR (Biacore), TF-His over coupled antibody
T8 construct: Expi293-derived; Biacore used TF-His; also called TF-His; hTF
Method: as §3, §4

[11] = molecular target: T9, mouse TF ECD-His6 (mouse, UniProt P20352 29-251); test: BLI (ForteBio Octet)
T9 construct: Expi293-derived; also called TF-His; mTF
Method: as §3
(§5) Briefly, ForteBio affinity measurements were performed by loading IgGs on-line onto AHC sensors. Sensors were equilibrated off-line in assay buffer for 30 min and then monitored on-line for 60 seconds for baseline establishment. Sensors with loaded IgGs were exposed to 100 nM antigen (human, cynomolgus, or mouse TF) for 3 min, afterwards they were transferred to assay buffer for 3 min for off-rate measurement. Alternatively, binding measurements were obtained by loading biotinylated TF monomer on SA sensors followed by exposure to 100 nM antibody Fab in solution. Kinetic data was analyzed and fitted using a 1:1 Langmuir binding model and the KD was calculated by dividing the koff by the kₒₙ.

[12] = molecular target: T8, human TF ECD-His6; test: BLI (ForteBio Octet)
Method: as §3, §5

[13] = molecular target: T7, cynomolgus monkey TF ECD-His6; test: BLI (ForteBio Octet)
Method: as §3, §5

[14] = molecular target: T5, human Tissue Factor on human …; test: flow cytometry, antibody titration on HCT-116 cells (endogenous human TF), 4-parameter fit of MFI; remark: listed apart in the source
Method: as §2

[15] = molecular target: T6, full-length mouse TF with a C-terminal …; test: flow cytometry on CHO cells expressing mouse TF, MFI at 250 nM antibody; remark: listed apart in the source
Method: as §2

[16] = molecular target: T6, full-length mouse TF with a C-terminal …; test: flow cytometry, antibody titration on CHO cells expressing mouse TF, 4-parameter fit of MFI; remark: listed apart in the source
Method: as §2

B1: 39A (antibody, human IgG1, V domains shown)
VH: QVQLVQSGAEVKKPGSSVKVSCKASGGTFSSNAIGWVRQAPGQGLEWMGSIIPIIGFANYAQKFQGRVTITADESTSTAYMELSSLRSEDTAVYYCARDSGYYYGASSFGMDVWGQGTTVTVSS
VL: EIVMTQSPATLSVSPGERATLSCRASQSVSSNLAWYQQKPGQAPRLLIYGASTRATGIPARFSGSGSGTEFTLTISSLQSEDFAVYYCEQYNNLPLTFGGGTKVEIK
notes: Human IgG1; also called antibody designated 39A
% ETP at 10 nM Ab (TGA without antibody pre-incubation) [1]: 58%
% Peak IIa at 10 nM Ab (TGA without antibody pre-incubation) [1]: 24%
% Peak IIa at 50 nM Ab (TGA without antibody pre-incubation) [1]: 8%
% Peak IIa at 100 nM Ab (TGA without antibody pre-incubation) [1]: 6%
ETP at 10 nM Ab (TGA without antibody pre-incubation) [1]: 1330 nM·min
Lag Time at 10 nM Ab (TGA without antibody pre-incubation) [1]: 12.4 min
Lag Time at 50 nM Ab (TGA without antibody pre-incubation) [1]: 33.1 min
Lag Time at 100 nM Ab (TGA without antibody pre-incubation) [1]: 38.1 min
Peak IIa at 10 nM Ab (TGA without antibody pre-incubation) [1]: 84 nM
Peak IIa at 50 nM Ab (TGA without antibody pre-incubation) [1]: 29 nM
Peak IIa at 100 nM Ab (TGA without antibody pre-incubation) [1]: 22 nM
ttPeak at 10 nM Ab (TGA without antibody pre-incubation) [1]: 20.7 min
ttPeak at 50 nM Ab (TGA without antibody pre-incubation) [1]: 43.2 min
ttPeak at 100 nM Ab (TGA without antibody pre-incubation) [1]: 48.3 min
EC50 [2]: 0.45 nM
% Peak IIa at 10 nM Ab (TGA with 10 min antibody pre-incubation) [3]: 11%
% Peak IIa at 50 nM Ab (TGA with 10 min antibody pre-incubation) [3]: 8%
% Peak IIa at 100 nM Ab (TGA with 10 min antibody pre-incubation) [3]: 6%
Lag Time at 10 nM Ab (TGA with 10 min antibody pre-incubation) [3]: 20.9 min
Lag Time at 50 nM Ab (TGA with 10 min antibody pre-incubation) [3]: 29 min
Lag Time at 100 nM Ab (TGA with 10 min antibody pre-incubation) [3]: 32.1 min
Peak IIa at 10 nM Ab (TGA with 10 min antibody pre-incubation) [3]: 30 nM
Peak IIa at 50 nM Ab (TGA with 10 min antibody pre-incubation) [3]: 21 nM
Peak IIa at 100 nM Ab (TGA with 10 min antibody pre-incubation) [3]: 17 nM
ttPeak at 10 nM Ab (TGA with 10 min antibody pre-incubation) [3]: 30.8 min
ttPeak at 50 nM Ab (TGA with 10 min antibody pre-incubation) [3]: 39.7 min
ttPeak at 100 nM Ab (TGA with 10 min antibody pre-incubation) [3]: 43.2 min
EC50 [4]: 0.34 nM
EC50 [5]: 0.27 nM

B2: 25A5 (antibody, human IgG1, V domains shown)
VH: QVQLVQSGAEVKKPGASVKVSCKASGYTFDVYGISWVRQAPGQGLEWMGWIAPYSGNTNYAQKLQGRVTMTTDTSTSTAYMELRSLRSDDTAVYYCARDAGTYSPFGYGMDVWGQGTTVTVSS
VL: DIQMTQSPSTLSASVGDRVTITCRASESISNWLAWYQQKPGKAPKLLIYKAYSLEYGVPSRFSGSGSGTEFTLTISSLQPDDFATYYCQQFQKLPPFTFGGGTKVEIK
notes: Human IgG1; also called antibody designated 25A5
EC50 [6]: 0.088 nM
MFI at 250 nM [7]: 8e+06
EC50 [8]: 11 nM
Kd [9]: 0.04 nM
Kd [10]: 0.08 nM
Kd [11]: 188 nM
Kd [12]: 0.64 nM

B3: 25G (antibody, human IgG1, V domains shown)
VH: B2 VH with D30R, V31S, I51V, S55N, F106Y
VL: B2 VL with E27Q, N31S, Y52S, Y56S, K93S
notes: Human IgG1; also called antibody designated 25G
EC50 [6]: 0.134 nM
MFI at 250 nM [7]: 1.6e+07
EC50 [8]: 3.9 nM
Kd [9]: 18 nM
Kd [10]: 23 nM
Kd [11]: 114 nM
Kd [13]: 17.5 nM
Kd [12]: 21.9 nM

B4: 43B (antibody, human IgG1, V domains shown)
VH: QVQLQESGPGLVKPSQTLSLTCTVSGGSISSGQYWSWIRQHPGKGLEWIGEIYYSGSTRYNPSLKSRVTISVDTSKNQFSLKLSSVTAADTAVYYCARDAPYYYGGGYYYYMDVWGKGTTVTVSS
VL: EIVLTQSPGTLSLSPGERATLSCRASQSVSSSYLAWYQQKPGQAPRLLIYGASSRATGIPDRFSGSGSGTDFTLTISRLEPEDFAVYYCQQVGVVPYTFGGGTKVEIK
notes: Human IgG1; also called antibody designated 43B
EC50 [14]: 0.559 nM
Kd [9]: 5.64 nM
Kd [10]: 1.75 nM
Kd [11]: 161 nM
Kd [13]: 3.4 nM
Kd [12]: 2.4 nM

B5: 43B1 (antibody, human IgG1, V domains shown)
VH: B4 VH
VL: B4 VL with Q27E, S30D, S54T, A56Q, V92A
notes: Human IgG1; also called antibody designated 43B1
MFI at 250 nM [15]: 5.3e+06
EC50 [16]: 255 nM
Kd [11]: 72.1 nM

B6: 43B7 (antibody, human IgG1, V domains shown)
VH: B4 VH
VL: B4 VL with Q27E, S30D, S53D, V92D
notes: Human IgG1; also called antibody designated 43B7
EC50 [14]: 0.255 nM
MFI at 250 nM [15]: 800000
Kd [9]: 0.24 nM
Kd [10]: 0.14 nM
Kd [11]: 360 nM
Kd [13]: 0.94 nM
Kd [12]: 0.86 nM

B7: 43D (antibody, human IgG1, V domains shown)
VH: QVQLQQWGAGLLKPSETLSLTCAVYGGSLSGYYWSWIRQPPGKGLEWIGEIGASGSTRYNPSLKSRVTISVDTSKNQFSLKLSSVTAADTAVYYCARDTPYYYEGGYYYYMDVWGKGTTVTVSS
VL: B4 VL
notes: Human IgG1; also called antibody designated 43D
EC50 [14]: 0.147 nM
MFI at 250 nM [15]: 1.3e+07
Kd [9]: 5.66 nM
Kd [10]: 2.09 nM
EC50 [16]: 2.9 nM
Kd [11]: 281 nM
Kd [13]: 4.12 nM
Kd [12]: 3.84 nM
